Test system: Saccharomyces cerevisiae
Experiment: transcriptional activation domain activity (GFP:mCherry ratio, weighted mean of sorted bins, harmonized to initial dataset scale) (arbitrary fluorescence ratio units); higher = stronger transcriptional activation
Conditions: beta-estradiol 1 µM; induction time 4 h
Summary of the method: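 Each value is an activation activity: the read-weighted mean of bin median fluorescence, averaged across barcodes, then mapped linearly to the initial dataset scale. The tiles, fused to an estradiol-inducible synthetic transcription factor, sat at the yeast URA3 locus in GFP-reporter diploids. Cells spent 4 hours at 30 °C in SC with 1 uM beta-estradiol before sorting into 8 GFP:mCherry bins, and tiles below 50 reads were removed.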

Sequence | transcriptional activation domain activity
MGGYLFHLLFFSFFLFSSLLRVYYYIVDMGGVLSLLYRFFLLLVTIFVRCIIF | 57100
GASVDIHVTYQSSVKEGDEVEIEGIAEKVGGSLAFTKVNIFRVEDGERGRPVA | 36800
ALSAWIIIQGYRVQWKTILLHDNLFVFTAASKSWVFAHAVYRFVLLTLPCFGS | 40700
APTAARVVPSACPSSVTSRATATATMTSPGGGSRSSSRTAAAAAPTGAAVARC | 48400
MYCMRYFVPLFLLPFPDSPPIFVILFLISFFLHQKPCIYCTLLLFALFSSTCF | 48600
VLGSEGSNLRCTRYLVVGGPPAMGREVQRFRECECTVMRMTVLIRGAVMWGCR | 57500
GTGDEQTGSGEKGKKKKASRACYHCQKAHLTCDDARPCGRCVKRNLASTCTDG | 40600
EAGREAGKAGREEKQVKQDEERTAEDTETGKHEEDRNGEQKQRDRKTRRGKIR | 25300
LNRWQKLLSWDVAYQIEGMLRRLLVDVKEMLSLMARIRAMILRYDSHYTAAFL | 71500
LYLSVLYIIVFTFLPGYTFIFTLTYGYGFAARGLSFLALGVGFLSSLILVIPV | 46500
ESDGGGEESGEGEERRKRRKKERLERRERKLKAKEEKKKKKSRGDGEAATKSQ | 25100
AILDLAFYIRWQNNNYHLAPSIPLSKMYSNSLLVVLNARIKIVGGRNEYKTNS | 31900
MLYSFRLLFILFFFLLEALSICRRCNVTGRGCFRDWDCWNACHQYAVSPRWGI | 41900
RFRALRLLVIDDMIRLRDQSHCGWICTFLSSIELDVIQCINFRIWINMCPEFY | 32600
MFFLSSIFLTLSMTLSPLFLYFNWLVVYGFSSLFFIFSTPTFLPPLCFFQWYC | 45200
MSSSAASGPMGESSKRKAGSEAVAGSSSSSSISRDGKKAKLKPQDEATATGAA | 31400
MFYGFGSLSYGKGVTEFFFFSFFFFVASFISCFLFNFFSSAQFCCLFFHFVLI | 58300
LALNDISRSVVAAGRVDGAVHITGVRDAVVAVAARQVRVHECRNVDLYLRCAS | 44800
GESSSKPPKKRGRPRKNPLPPAEPSGADEGETSAPAAEPNPPKRKRGRPRKDS | 34600
VVTLHEILKCLGHLRSLVLTAKAFGCLQAIRMILEHFLLVWRKTITHCLRYSE | 60400
FFFFPFLSLLFFFFPFLLSLLSSSLLLAAFSCFCFLPSLTPLPLSSSSSSPLF | 34900

Sequence | transcriptional activation domain activity
GLPVVLVLVFFGLPTTGFLVFFPADFLVVFFAFLATFLKVVFKGFFAFLLFFP | 74300
YYPLFLGRLLPLSLLSFFVYFILFTFAFLPQLAFLYIFHGRGAWLNAIFLVLG | 44200
NISTSVYVLLVCFHPLFLLLLLLLLLLLLLYRFVFAFFFISFFFFFLLLLLLL | 25000
TYAIWNCNKWILCILVVVASGVYISSAVILHDIFQSYEYPVLSLPTKMYCLPF | 18700
ADEEPTSSLYRSNAKEVSRITTGSCSEIKNKLAGMQLGHNKQVSICSSGLCVP | 72000
AATNKYDATIQRMLSRSVFVTCNSWYRVGGTGKNTSIFPGPGMLFWWWTRQAR | 61100
SKADTEDGEEAVDDTATEEKPEAKAEEVTEETTTEKEAEAAAESAAAEKLRRD | 25700
EPESKPAPARGAQPAQRGNFRGGRGGHRGARGGRGRGGYQERPRRQEEEKPTK | 9620
APPSSKPSPPPTSAASPAAPRAASPRPRAASSAGCRPRRGATRCCSRARASRS | 39400
LSLPPPLPFFPPLFPFFFLFFFYLLISFFFSFLFCGEMDLGWALQVAAATYSH | 36700
DLLAHCKRELVHAIWTLLLDDVFLHAYKYGMVVRCADGVEQRIYPRIFTYSAD | 41200
VGTVMFGLACASSTQVLLSLIGGWNVGFFISLLAVTIFAVLTKIIPWVWYIYS | 58300
RKDKSRVEDSDSADSDAGHVNGNKAGEGEEGAAKKKRKRRHKKRVPDGEGASV | 29700
LSSSPSAQMATNTNVVVVIGDDKRVKEVGDALKTKLGVKGGGKGMRWSGKFVG | 26700
SKWEVANKKTRDEASKGGGGKGGGGGKGGKAGEGGKEKRSEKKAAAKEGGKKK | 39600
NLVRCYYYYGYFGLQSCMVHVFLWFMWWIFLLSSRPLQSTPLSIIWRIILYQA | 29700
FLSCLLAMEIIQHYMYVVAIKDRKAWIGDSPFELSMIGLWNLVIVWLKLLLPW | 59900
QQEGLKAELPHDFLFQHGTDDTMYNLTDDLSSSLSSSINSDMMTPNTYSSSFS | 65000
EQGQNLQGLLEFMCFEVGPMFLDLIIAFVYVYTLFDLYMSMILLFVGLAYVWI | 33200
FVGIRDRTTFLLFTSAWTVVFSLLFVLLFMHSASTGSPLTSVASHFVVFLLTW | 56900
YKKLQWHYFLFDLCYYVNILNFVFLWIFPHSPSLFVACYCLSLGSVASAIITW | 27700

Sequence | transcriptional activation domain activity
RLLNALLLPPYLEQIMYFGTLACFDAWLYTFTILPMRFISAVGVLVKWWLYLI | 47500
LRYALDLYRSLRAKVWENSPLILRQLEGIGKMILIISLLRKLIGVIIQLMYCF | 55500
LFTSIYYIIILSRSCLFFLFSLPLFQDALFLFVDSVQLYMWGILLFILSSLFF | 42900
PDEVASEASQPAEPAAASRAESPAAASVYEEAREPQEVQEERVASPVVAATPA | 48300
SEAVDFEVPDDFVVSWTGDLLPHTIIYCDFPPPMSVALFEPQPSDMDFDWFWI | 71600
PVIFRKRPTYLMFISVCLMYIYLFAVVYIRPYKLTRNNHVAIISWITIVIFLF | 44400
GVFVLLEQYCGINFYGLRKHGGTASMCPLGGTLRSWAYRFVAISYPPKRMVNG | 27600
QPIASCVVKVNFGMISNDSNFCGLVSGIIYVYMGLGGAFMLLVAVCVIKVRYT | 67700
TLWLLLLCLRCSTSVLALLTLLSCSSFPPFLGFHLSRALWPVLRCPLPSMLCS | 59400
LLVFGFEEHFFFFIFFFLVDGSAFCMFCDVFHFYVCCYVPHLLCLTLVIAGVS | 73000
AVVILGDLHPRGYNSNWFLMYYTGWLTFIFFITLLWALANLAWLRYTARVLPC | 29300
CVFLSILCLFIHLLLIVSLLLFFCHCLFFSVPITLVCFSMTIHLTPKIFILLF | 52700
GVLMCYYSRSHNFDVAKRHFQRILNLLPLLKSTPNIFPLYGLIFSTMGLLVLI | 62600
KRGEGEAGKESGRQRRSGSAGERAGRRGEGSKEGAEGESEASREKGNKRNDEE | 32800
EESGGESGGAADKNARVLSTALELALIVLDTCVELDGGRSLSLEHTALLLAAG | 69300
MFMDTLLFVFMHYGWTFFLNCCLWCFMISLCFWYVKFCLPIGCYILILCMWQG | 66200
VLLILGLGNPLCSRPVKLFEWMIAALVFAVLICMTMIIVKVNVVWSQAFNGFV | 45600
VYIYAKTISIVLLTDIYIGKYTYILISLKLLARKKFYNILTNPIFCAHIRLVI | 55300
AKADGKRGRTGTGARRGKGKKVTREARGRRKVKRRRGARAGKGSAGRERERGE | 34800

Reference: the supplement of paper PMC12636428
